Assay results as given in the supplement of paper PMC10065799, “High-throughput profiling of sequence recognition by tyrosine kinases and SH2 domains using bacterial peptide display” (eLife, 2023).

Experiments:
Jak2 = Jak2 (UniProt O60674); assay: phosphorylation enrichment, bacterial display (enrichment ratio); higher = better substrate or ligand; peptides without Tyr show the background
Fyn = Fyn (UniProt P06241); assay: as above
c-Src = assay: as above
MERTK = MERTK (UniProt Q12866); assay: as above
Sequence of MERTK (Q12866 whole entry, looked up): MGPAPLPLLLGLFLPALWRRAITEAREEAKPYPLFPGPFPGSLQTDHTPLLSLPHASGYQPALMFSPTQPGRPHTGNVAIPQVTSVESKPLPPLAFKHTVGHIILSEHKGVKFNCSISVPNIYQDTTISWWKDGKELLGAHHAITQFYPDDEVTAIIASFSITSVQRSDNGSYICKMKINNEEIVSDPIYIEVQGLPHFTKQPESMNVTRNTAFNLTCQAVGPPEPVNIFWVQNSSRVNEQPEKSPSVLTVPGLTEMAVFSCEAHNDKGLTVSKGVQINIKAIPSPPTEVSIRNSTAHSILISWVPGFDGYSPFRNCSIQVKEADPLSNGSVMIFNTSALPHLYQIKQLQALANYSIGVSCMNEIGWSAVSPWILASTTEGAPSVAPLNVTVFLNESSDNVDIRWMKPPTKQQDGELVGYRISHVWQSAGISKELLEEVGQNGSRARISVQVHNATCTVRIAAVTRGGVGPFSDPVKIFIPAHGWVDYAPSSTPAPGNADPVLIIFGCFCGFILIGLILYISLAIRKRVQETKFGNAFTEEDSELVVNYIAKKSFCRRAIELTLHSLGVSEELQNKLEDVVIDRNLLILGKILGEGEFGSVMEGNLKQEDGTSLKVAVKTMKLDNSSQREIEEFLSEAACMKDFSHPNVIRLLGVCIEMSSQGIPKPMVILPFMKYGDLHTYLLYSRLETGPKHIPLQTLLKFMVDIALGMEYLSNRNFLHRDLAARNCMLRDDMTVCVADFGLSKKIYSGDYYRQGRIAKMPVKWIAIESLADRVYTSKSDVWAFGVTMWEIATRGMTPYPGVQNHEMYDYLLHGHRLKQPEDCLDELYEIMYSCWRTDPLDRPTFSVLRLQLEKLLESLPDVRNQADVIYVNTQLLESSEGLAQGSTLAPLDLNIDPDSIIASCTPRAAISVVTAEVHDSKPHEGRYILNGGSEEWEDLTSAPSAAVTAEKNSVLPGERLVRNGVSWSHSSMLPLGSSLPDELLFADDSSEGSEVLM

Fes = Fes (UniProt P07332); assay: as above
EPHB1 = EPHB1 (UniProt P54762); assay: as above
Sequence of EPHB1 (P54762 whole entry, looked up): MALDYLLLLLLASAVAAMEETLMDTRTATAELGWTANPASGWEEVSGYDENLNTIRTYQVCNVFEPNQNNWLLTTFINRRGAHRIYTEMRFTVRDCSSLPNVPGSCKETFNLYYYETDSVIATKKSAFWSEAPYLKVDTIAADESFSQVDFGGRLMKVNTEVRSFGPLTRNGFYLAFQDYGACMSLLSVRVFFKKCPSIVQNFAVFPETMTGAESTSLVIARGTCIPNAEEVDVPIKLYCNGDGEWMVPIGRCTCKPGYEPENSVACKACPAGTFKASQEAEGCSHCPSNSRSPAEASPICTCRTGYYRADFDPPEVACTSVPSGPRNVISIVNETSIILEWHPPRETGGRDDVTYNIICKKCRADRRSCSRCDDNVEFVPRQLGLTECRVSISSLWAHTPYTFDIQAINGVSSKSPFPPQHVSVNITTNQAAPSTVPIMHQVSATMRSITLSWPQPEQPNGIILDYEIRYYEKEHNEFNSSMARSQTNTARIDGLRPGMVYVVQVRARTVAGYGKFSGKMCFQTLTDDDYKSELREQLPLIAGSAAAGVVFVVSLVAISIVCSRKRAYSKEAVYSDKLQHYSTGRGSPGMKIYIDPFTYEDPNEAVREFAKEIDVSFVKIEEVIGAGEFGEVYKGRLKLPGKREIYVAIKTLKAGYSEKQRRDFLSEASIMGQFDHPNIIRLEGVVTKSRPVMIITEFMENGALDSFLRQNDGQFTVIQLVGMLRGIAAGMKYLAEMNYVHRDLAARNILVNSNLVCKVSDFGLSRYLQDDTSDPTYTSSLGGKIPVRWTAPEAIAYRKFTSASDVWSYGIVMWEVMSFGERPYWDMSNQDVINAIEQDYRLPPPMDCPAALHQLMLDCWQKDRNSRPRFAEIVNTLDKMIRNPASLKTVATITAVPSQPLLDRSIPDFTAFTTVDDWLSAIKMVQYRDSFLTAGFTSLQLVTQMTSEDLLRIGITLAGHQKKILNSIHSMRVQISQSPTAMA

Fer (mouse) = assay: as above
FGFR1 = FGFR1 (UniProt P11362); assay: as above
Sequence of FGFR1 (P11362 whole entry, looked up): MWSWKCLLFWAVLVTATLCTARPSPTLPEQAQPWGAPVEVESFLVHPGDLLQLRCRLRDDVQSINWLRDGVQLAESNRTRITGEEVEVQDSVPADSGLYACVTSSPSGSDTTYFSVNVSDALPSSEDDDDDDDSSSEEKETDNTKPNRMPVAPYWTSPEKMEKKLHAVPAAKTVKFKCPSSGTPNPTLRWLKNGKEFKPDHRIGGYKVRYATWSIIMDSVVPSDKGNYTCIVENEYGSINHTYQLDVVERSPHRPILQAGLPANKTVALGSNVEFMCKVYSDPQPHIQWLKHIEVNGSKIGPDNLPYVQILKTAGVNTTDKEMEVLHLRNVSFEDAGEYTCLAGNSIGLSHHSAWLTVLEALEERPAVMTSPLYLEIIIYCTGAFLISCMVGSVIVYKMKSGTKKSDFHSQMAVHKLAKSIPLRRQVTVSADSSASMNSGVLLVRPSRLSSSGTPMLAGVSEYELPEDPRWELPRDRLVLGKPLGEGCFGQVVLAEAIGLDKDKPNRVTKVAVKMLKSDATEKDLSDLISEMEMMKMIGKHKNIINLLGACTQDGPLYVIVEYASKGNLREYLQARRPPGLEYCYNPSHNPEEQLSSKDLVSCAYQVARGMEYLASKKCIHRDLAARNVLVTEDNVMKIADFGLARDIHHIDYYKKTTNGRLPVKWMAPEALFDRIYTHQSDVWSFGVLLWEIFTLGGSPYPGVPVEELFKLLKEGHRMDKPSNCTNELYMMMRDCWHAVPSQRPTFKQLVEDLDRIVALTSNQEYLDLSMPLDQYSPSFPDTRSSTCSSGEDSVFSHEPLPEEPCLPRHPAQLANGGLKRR

FGFR3 = FGFR3 (UniProt P22607); assay: as above
Sequence of FGFR3 (P22607 whole entry, looked up): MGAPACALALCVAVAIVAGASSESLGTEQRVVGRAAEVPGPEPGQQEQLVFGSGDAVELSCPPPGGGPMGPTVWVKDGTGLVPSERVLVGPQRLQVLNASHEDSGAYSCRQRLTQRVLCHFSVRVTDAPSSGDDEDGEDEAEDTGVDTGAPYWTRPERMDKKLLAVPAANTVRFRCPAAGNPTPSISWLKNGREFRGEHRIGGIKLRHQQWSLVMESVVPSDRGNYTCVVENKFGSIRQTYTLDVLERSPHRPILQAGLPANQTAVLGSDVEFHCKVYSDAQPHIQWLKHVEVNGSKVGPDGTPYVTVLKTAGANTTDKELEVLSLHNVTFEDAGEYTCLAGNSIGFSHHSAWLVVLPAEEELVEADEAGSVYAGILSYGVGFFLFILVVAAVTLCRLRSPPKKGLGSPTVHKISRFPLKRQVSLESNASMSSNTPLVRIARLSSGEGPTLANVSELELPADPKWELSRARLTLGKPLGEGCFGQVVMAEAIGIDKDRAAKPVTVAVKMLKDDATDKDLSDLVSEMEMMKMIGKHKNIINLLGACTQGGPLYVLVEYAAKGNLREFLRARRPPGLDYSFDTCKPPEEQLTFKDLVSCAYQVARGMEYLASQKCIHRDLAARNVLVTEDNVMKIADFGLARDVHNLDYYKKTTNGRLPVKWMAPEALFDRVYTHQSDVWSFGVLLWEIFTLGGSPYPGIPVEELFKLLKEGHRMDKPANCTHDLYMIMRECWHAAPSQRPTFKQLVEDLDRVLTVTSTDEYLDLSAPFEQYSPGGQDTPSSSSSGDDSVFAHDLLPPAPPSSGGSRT

c-Abl (mouse) = assay: as above
AncSZ = assay: as above
Hck = Hck (UniProt P08631); assay: as above
EPHB2 = EPHB2 (UniProt P29323); assay: as above
Grb2 SH2 = Grb2 SH2 (UniProt P62993); assay: SH2 binding enrichment of the phosphorylated peptide, bacterial display (enrichment ratio); higher = better substrate or ligand; peptides without Tyr show the background
Sequence of Grb2 SH2 (P62993 whole entry, looked up): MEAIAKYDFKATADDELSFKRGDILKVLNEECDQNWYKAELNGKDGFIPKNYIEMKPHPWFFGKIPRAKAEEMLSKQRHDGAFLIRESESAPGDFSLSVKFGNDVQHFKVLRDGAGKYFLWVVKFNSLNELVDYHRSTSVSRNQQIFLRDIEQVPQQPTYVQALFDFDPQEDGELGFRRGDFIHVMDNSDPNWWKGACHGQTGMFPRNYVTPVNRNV

SHP2-C SH2 = assay: as above
c-Src SH2 = assay: as above
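For SH2 binding enrichment of the phosphorylated peptide, bacterial display in this document: peptide library displayed on the E. coli surface as eCPX fusions, selected cells deep-sequenced, score is each peptide's frequency after selection divided by its frequency in the input.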
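For phosphorylation enrichment, bacterial display in this document: 11-residue human phosphosite peptides and single-mutation variants displayed on the E. coli surface, counted by deep sequencing, each peptide's frequency after selection divided by its frequency in the unselected input library; frequency after pTyr selection over input frequency; kinase dosed for 20-30% of maximal phosphorylation in three min.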

Sequence of Jak2 (O60674 whole entry, looked up): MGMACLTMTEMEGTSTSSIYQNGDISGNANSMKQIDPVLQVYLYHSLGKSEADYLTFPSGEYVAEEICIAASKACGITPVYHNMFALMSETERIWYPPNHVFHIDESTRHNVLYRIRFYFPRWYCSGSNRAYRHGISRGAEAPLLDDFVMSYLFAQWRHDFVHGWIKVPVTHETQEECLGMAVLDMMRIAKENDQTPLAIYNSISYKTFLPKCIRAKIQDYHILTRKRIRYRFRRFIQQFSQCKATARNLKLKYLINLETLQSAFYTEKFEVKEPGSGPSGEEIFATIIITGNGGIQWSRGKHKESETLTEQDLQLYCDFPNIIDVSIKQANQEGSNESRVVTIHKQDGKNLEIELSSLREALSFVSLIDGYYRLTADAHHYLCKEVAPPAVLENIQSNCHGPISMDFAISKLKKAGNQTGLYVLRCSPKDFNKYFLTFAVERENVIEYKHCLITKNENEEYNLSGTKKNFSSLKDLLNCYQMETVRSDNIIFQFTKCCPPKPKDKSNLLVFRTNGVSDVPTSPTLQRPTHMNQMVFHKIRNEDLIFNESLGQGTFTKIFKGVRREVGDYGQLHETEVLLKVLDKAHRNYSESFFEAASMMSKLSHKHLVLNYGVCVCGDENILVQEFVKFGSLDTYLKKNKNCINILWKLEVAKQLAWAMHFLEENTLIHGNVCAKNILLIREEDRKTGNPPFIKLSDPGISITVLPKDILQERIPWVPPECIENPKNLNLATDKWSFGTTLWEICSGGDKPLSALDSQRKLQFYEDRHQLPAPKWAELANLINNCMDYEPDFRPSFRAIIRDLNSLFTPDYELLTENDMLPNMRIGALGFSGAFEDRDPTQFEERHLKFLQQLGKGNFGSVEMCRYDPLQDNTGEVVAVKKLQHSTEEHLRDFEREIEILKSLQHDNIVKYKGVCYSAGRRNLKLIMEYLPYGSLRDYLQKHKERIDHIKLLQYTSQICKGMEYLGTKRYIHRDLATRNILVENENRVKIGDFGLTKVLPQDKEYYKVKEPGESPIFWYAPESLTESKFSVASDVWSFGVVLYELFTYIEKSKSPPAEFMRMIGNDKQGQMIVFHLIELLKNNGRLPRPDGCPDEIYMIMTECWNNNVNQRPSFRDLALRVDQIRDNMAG

| Sequence | phosphorylation enrichment (Jak2) | phosphorylation enrichment (Fyn) | phosphorylation enrichment (c-Src) | phosphorylation enrichment (MERTK) | phosphorylation enrichment (Fes) | phosphorylation enrichment (EPHB1) | phosphorylation enrichment (Fer (mouse)) | phosphorylation enrichment (FGFR1) | phosphorylation enrichment (FGFR3) | phosphorylation enrichment (c-Abl (mouse)) | phosphorylation enrichment (AncSZ) | phosphorylation enrichment (Hck) | phosphorylation enrichment (EPHB2) | SH2 binding enrichment (Grb2 SH2) | SH2 binding enrichment (SHP2-C SH2) | SH2 binding enrichment (c-Src SH2) |
| --- | --- | --- | --- | --- | --- | --- | --- | --- | --- | --- | --- | --- | --- | --- | --- | --- |
| RFLERDIFNRE [HLA-DPB1_Y57_Y57D_YF] | 1.69 | 0.518 | 0.584 | 0.548 | 1.01 | 0.769 | 1.01 | 0.682 | 1.1 | 1.29 | 1.17 | 0.771 | 0.569 | 0.927 | 0.707 | 0.565 |
| RRVLVYVGRGA [QDPR_Y16_G17V] | 1.03 | 0.716 | 0.788 | 0.762 | 0.799 | 0.63 | 0.85 | 0.797 | 0.648 | 0.798 | 1.1 | 0.506 | 0.858 | 0.657 | 0.818 | 0.414 |
| VEDHYYEGGIG [TKT_Y564] | 1.05 | 0.559 | 0.628 | 0.524 | 1.11 | 0.581 | 0.688 | 1.59 | 1.73 | 0.837 | 1.1 | 0.636 | 0.65 | 0.883 | 0.833 | 3.89 |
| MPAVTYTPAMR [MEGF10_Y895] | 0.743 | 0.313 | 0.384 | 0.336 | 0.569 | 0.253 | 0.313 | 0.28 | 0.425 | 0.455 | 0.481 | 0.415 | 0.328 | 0.726 | 0.825 | 0.477 |
| IRGNMYYENSY [EGFR_Y112] | 0.55 | 0.468 | 0.526 | 1.06 | 0.733 | 0.486 | 0.535 | 0.58 | 0.665 | 0.449 | 0.761 | 0.603 | 0.594 | 4.75 | 0.897 | 4.19 |
| GPSTPYTKSKR [SMARCC2_Y324] | 0.497 | 0.405 | 0.452 | 0.353 | 0.511 | 0.322 | 0.324 | 0.363 | 0.362 | 0.651 | 0.408 | 0.319 | 0.299 | 0.746 | 0.758 | 0.505 |
| RETLTYAQAQR [BRD1_Y33] | 0.694 | 0.584 | 0.623 | 0.529 | 0.737 | 0.383 | 0.42 | 0.541 | 0.525 | 0.963 | 0.702 | 0.746 | 0.478 | 0.904 | 0.819 | 0.753 |
| EEGNPYFSGAR [MCCC2_Y520_S523G_YF] | 0.802 | 0.637 | 1.37 | 0.444 | 0.945 | 0.516 | 0.347 | 0.521 | 0.686 | 0.687 | 0.938 | 0.864 | 0.462 | 0.868 | 0.667 | 0.536 |
| DVSVVCSEVKT [FCRL4_Y493_Y493C] | 0.995 | 0.681 | 0.594 | 0.456 | 1.3 | 0.617 | 0.537 | 0.625 | 0.838 | 0.867 | 1.15 | 0.635 | 0.614 | 1.1 | 0.581 | 0.594 |
| MKGDYYRYLAE [YWHAG_Y131] | 3.29 | 0.741 | 0.639 | 0.718 | 0.89 | 1.09 | 0.501 | 8.62 | 6.43 | 0.686 | 1.07 | 0.779 | 1.02 | 0.815 | 0.568 | 0.615 |
| ESMLRYEVFGG [STOX1_Y607_YF] | 1.09 | 0.592 | 1.04 | 1.41 | 0.993 | 0.631 | 0.386 | 0.415 | 0.641 | 0.956 | 1.12 | 0.7 | 0.471 | 0.76 | 0.58 | 3.51 |
